The source of these data is article doi:10.1101/854158 (bioRxiv, 2019).

To fix the notation:
B1: FANCA (natural protein)
chain: MSDSWVPNSASGQDPGGRRRAWAELLAGRVKREKYNPERAQKLKESAVRLLRSHQDLNALLLEVEGPLCKKLSLSKVIDCDSSEAYANHSSSFIGSALQDQASRLGVPVGILSAGMVASSVGQICTAPAETSHPVLLTVEQRKKLSSLLEFAQYLLAHSMFSRLSFCQELWKIQSSLLLEAVWHLHVQGIVSLQELLESHPDMHAVGSWLFRNLCCLCEQMEASCQHADVARAMLSDFVQMFVLRGFQKNSDLRRTVEPEKMPQVTVDVLQRMLIFALDALAAGVQEESSTHKIVRCWFGVFSGHTLGSVISTDPLKRFFSHTLTQILTHSPVLKASDAVQMQREWSFARTHPLLTSLYRRLFVMLSAEELVGHLQEVLETQEVHWQRVLSFVSALVVCFPEAQQLLEDWVARLMAQAFESCQLDSMVTAFLVVRQAALEGPSAFLSYADWFKASFGSTRGYHGCSKKALVFLFTFLSELVPFESPRYLQVHILHPPLVPGKYRSLLTDYISLAKTRLADLKVSIENMGLYEDLSSAGDITEPHSQALQDVEKAIMVFEHTGNIPVTVMEASIFRRPYYVSHFLPALLTPRVLPKVPDSRVAFIESLKRADKIPPSLYSTYCQACSAAEEKPEDAALGVRAEPNSAEEPLGQLTAALGELRASMTDPSQRDVISAQVAVISERLRAVLGHNEDDSSVEISKIQLSINTPRLEPREHMAVDLLLTSFCQNLMAASSVAPPERQGPWAALFVRTMCGRVLPAVLTRLCQLLRHQGPSLSAPHVLGLAALAVHLGESRSALPEVDVGPPAPGAGLPVPALFDSLLTCRTRDSLFFCLKFCTAAISYSLCKFSSQSRDTLCSCLSPGLIKKFQFLMFRLFSEARQPLSEEDVASLSWRPLHLPSADWQRAALSLWTHRTFREVLKEEDVHLTYQDWLHLELEIQPEADALSDTERQDFHQWAIHEHFLPESSASGGCDGDLQAACTILVNALMDFHQSSRSYDHSENSDLVFGGRTGNEDIISRLQEMVADLELQQDLIVPLGHTPSQEHFLFEIFRRRLQALTSGWSVAASLQRQRELLMYKRILLRLPSSVLCGSSFQAEQPITARCEQFFHLVNSEMRNFCSHGGALTQDITAHFFRGLLNACLRSRDPSLMVDFILAKCQTKCPLILTSALVWWPSLEPVLLCRWRRHCQSPLPRELQKLQEGRQFASDFLSPEAASPAPNPDWLSAAALHFAIQQVREENIRKQLKKLDCEREELLVFLFFFSLMGLLSSHLTSNSTTDLPKAFHVCAAILECLEKRKISWLALFQLTESDLRLGRLLLRVAPDQHTRLLPFAFYSLLSYFHEDAAIREEAFLHVAVDMYLKLVQLFVAGDTSTVSPPAGRSLELKGQGNPVELITKARLFLLQLIPRCPKKSFSHVAELLADRGDCDPEVSAALQSRQQAAPDADLSQEPHLF

Holding throughout (assay): cryo-EM structure
The data set “cryo-EM structure” concerns the molecule itself.
In the data set “FANCA” the target is B1.
Another data set concerns the target T1, FANCC (human, UniProt Q00597 1-558).
T1 sequence: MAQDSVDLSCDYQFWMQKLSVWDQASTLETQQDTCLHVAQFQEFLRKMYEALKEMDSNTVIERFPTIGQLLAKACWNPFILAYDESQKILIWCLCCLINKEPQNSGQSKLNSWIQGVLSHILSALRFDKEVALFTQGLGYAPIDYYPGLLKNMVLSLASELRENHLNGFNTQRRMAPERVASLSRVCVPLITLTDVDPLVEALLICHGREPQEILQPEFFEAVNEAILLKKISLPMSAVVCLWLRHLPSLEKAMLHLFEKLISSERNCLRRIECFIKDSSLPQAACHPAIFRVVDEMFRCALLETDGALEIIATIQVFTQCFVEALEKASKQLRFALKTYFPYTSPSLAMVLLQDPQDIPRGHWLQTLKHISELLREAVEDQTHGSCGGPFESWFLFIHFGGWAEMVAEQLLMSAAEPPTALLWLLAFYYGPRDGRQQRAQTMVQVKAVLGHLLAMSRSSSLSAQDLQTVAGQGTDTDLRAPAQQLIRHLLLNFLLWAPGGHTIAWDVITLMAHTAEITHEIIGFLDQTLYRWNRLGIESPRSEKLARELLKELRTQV

With B1, the “stoichiometry N” value in “cryo-EM structure” came out at 2.

B2: FANCB (natural protein)
chain: MTSKQAMSSNEQERLLCYNGEVLVFQLSKGNFADKEPTKTPILHVRRMVFDRGTKVFVQKSTGFFTIKEENSHLKIMCCNCVSDFRTGINLPYIVIEKNKKNNVFEYFLLILHSTNKFEMRLSFKLGYEMKDGLRVLNGPLILWRHVKAFFFISSQTGKVVSVSGNFSSIQWAGEIENLGMVLLGLKECCLSEEECTQEPSKSDYAIWNTKFCVYSLESQEVLSDIYIIPPAYSSVVTYVHICATEIIKNQLRISLIALTRKNQLISFQNGTPKNVCQLPFGDPCAVQLMDSGGGNLFFVVSFISNNACAVWKESFQVAAKWEKLSLVLIDDFIGSGTEQVLLLFKDSLNSDCLTSFKITDLGKINYSSEPSDCNEDDLFEDKQENRYLVVPPLETGLKVCFSSFRELRQHLLLKEKIISKSYKALINLVQGKDDNTSSAEEKECLVPLCGEEENSVHILDEKLSDNFQDSEQLVEKIWYRVIDDSLVVGVKTTSSLKLSLNDVTLSLLMDQAHDSRFRLLKCQNRVIKLSTNPFPAPYLMPCEIGLEAKRVTLTPDSKKEESFVCEHPSKKECVQIITAVTSLSPLLTFSKFCCTVLLQIMERESGNCPKDRYVVCGRVFLSLEDLSTGKYLLTFPKKKPIEHMEDLFALLAAFHKSCFQITSPGYALNSMKVWLLEHMKCEIIKEFPEVYFCERPGSFYGTLFTWKQRTPFEGILIIYSRNQTVMFQCLHNLIRILPINCFLKNLKSGSENFLIDNMAFTLEKELVTLSSLSSAIAKHESNFMQRCEVSKGKSSVVAAALSDRRENIHPYRKELQREKKKMLQTNLKVSGALYREITLKVAEVQLKSDFAAQKLSNL
In the case of B2, the binding result in “cryo-EM structure” and with FANCA was “binds” in each case.

B3: FAAP100 (natural protein)
chain: MAGAAPRVRYLAGFCCPLGGLAAGKPRVLCHEAEVFLSTGSELVYVYDQEGGLLTAAFRFPDQVWHLELLAPRRLLYALCARRGLYCLSLDHPGRSRSTSQDDRDSEDGDQPSPVIPVDPDACILPDAALCAFTLLDSVLVTLVQGPARWKMQLFEQPCPGEDPRPGGQIGEVELSSYTPPAGVPGKPAAPHFLPVLCSVSPSGSRVPHDLLGGSGGFTLEDALFGLLFGADATLLQSPVVLCGLPDGQLCCVILKALVTSRSAPGDPNALVKILHHLEEPVIFIGALKTEPQAAEAAENFLPDEDVHCDCLVAFGHHGRMLAIKASWDESGKLVPELREYCLPGPVLCAACGGGGRVYHSTPSDLCVVDLSRGSTPLGPEQPEEGPGGLPPMLCPASLNICSVVSLSASPRTHEGGTKLLALSAKGRLMTCSLDLDSEMPGPARMTTESAGQKIKELLSGIGNISERVSFLKKAVDQRNKALTSLNEAMNVSCALLSSGTGPRPISCTTSTTWSRLQTQDVLMATCVLENSSSFSLDQGWTLCIQVLTSSCALDLDSACSAITYTIPVDQLGPGARREVTLPLGPGENGGLDLPVTVSCTLFYSLREVVGGALAPSDSEDPFLDECPSDVLPEQEGVCLPLSRHTVDMLQCLRFPGLAPPHTRAPSPLGPTRDPVATFLETCREPGSQPAGPASLRAEYLPPSVASIKVSAELLRAALKDGHSGVPLCCATLQWLLAENAAVDVVRARALSSIQGVAPDGANVHLIVREVAMTDLCPAGPIQAVEIQVESSSLADICRAHHAVVGRMQTMVTEQATQGSSAPDLRVQYLRQIHANHETLLREVQTLRDRLCTEDEASSCATAQRLLQVYRQLRHPSLILL
In the case of B3, the binding result with FANCA is listed as “binds”.

B4: FANCE (natural protein)
chain: MATPDAGLPGAEGVEPAPWAQLEAPARLLLQALQAGPEGARRGLGVLRALGSRGWEPFDWGRLLEALCREEPVVQGPDGRLELKPLLLRLPRICQRNLMSLLMAVRPSLPESGLLSVLQIAQQDLAPDPDAWLRALGELLRRDLGVGTSMEGASPLSERCQRQLQSLCRGLGLGGRRLKSPQAPDPEEEENRDSQQPGKRRKDSEEEAASPEGKRVPKRLRCWEEEEDHEKERPEHKSLESLADGGSASPIKDQPVMAVKTGEDGSNLDDAKGLAESLELPKAIQDQLPRLQQLLKTLEEGLEGLEDAPPVELQLLHECSPSQMDLLCAQLQLPQLSDLGLLRLCTWLLALSPDLSLSNATVLTRSLFLGRILSLTSSASRLLTTALTSFCAKYTYPVCSALLDPVLQAPGTGPAQTELLCCLVKMESLEPDAQVLMLGQILELPWKEETFLVLQSLLERQVEMTPEKFSVLMEKLCKKGLAATTSMAYAKLMLTVMTKYQANITETQRLGLAMALEPNTTFLRKSLKAALKHLGP
On to B4, for which, in the data set with FANCC, the binding result is recorded as “binds”.
